Laboratory results published in article PMC9482650, “Quantitative fragmentomics allow affinity mapping of interactomes” (Nature Communications, 2022).

Experiments:
Test in all cases: holdup assay
Design in all cases: key: below the threshold = too weak to quantify, mostly under pKd 3.1 to 4
SNX27, Q96L92 = molecular target: SNX27, Q96L92
LNX2_2, Q8N448 = molecular target: T1, LNX2_2, Q8N448
T1 sequence (Q8N448 334-432, limits assumed, looked up): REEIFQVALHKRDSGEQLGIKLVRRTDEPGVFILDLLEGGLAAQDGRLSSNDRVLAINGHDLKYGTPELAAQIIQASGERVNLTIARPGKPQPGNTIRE

Inadl_3, Q8NI35 = molecular target: Inadl_3, Q8NI35
Inadl_3, Q8NI35, sequence (Q8NI35 359-469): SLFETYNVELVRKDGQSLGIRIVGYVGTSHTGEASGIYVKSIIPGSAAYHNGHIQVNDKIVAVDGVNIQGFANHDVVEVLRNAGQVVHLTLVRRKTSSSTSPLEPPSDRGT

GRID2IP_2, A4D2P6 = molecular target: GRID2IP_2, A4D2P6
GRID2IP_2, A4D2P6, sequence (A4D2P6 272-370): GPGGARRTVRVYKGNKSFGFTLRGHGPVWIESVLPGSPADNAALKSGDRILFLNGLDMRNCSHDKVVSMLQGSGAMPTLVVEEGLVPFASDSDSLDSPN

RAPGEF6, Q8TEU7 = molecular target: T2, RAPGEF6, Q8TEU7
T2 sequence (Q8TEU7 525-625, limits assumed, looked up): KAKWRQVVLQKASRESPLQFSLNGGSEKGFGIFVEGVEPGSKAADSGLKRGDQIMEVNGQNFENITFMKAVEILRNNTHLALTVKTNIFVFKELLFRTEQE

LNX2_3, Q8N448 = molecular target: T3, LNX2_3, Q8N448
T3 sequence (Q8N448 463-564, limits assumed, looked up): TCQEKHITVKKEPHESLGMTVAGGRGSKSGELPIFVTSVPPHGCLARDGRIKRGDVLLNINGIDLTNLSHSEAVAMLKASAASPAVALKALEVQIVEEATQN

GRIP2_6, Q9C0E4 = molecular target: GRIP2_6, Q9C0E4
GRIP2_6, Q9C0E4, sequence (Q9C0E4 648-740): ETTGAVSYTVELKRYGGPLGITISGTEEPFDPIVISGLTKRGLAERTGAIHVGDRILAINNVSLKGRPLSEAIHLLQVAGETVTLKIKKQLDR

MAGI1_2, Q96QZ7 = molecular target: MAGI1_2, Q96QZ7
MAGI1_2, Q96QZ7, sequence (Q96QZ7 456-580): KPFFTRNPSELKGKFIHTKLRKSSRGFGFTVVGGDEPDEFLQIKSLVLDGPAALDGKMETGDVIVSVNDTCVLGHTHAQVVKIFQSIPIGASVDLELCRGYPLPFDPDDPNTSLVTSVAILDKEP

CARD11, Q9BXL7 = molecular target: T4, CARD11, Q9BXL7
T4 sequence (Q9BXL7 662-765, limits assumed, looked up): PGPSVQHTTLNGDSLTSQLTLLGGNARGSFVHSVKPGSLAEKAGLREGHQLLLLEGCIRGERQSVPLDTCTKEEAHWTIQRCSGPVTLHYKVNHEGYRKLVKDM

LNX1_3, Q8TBB1 = molecular target: LNX1_3, Q8TBB1
LNX1_3, Q8TBB1, sequence (Q8TBB1 500-596): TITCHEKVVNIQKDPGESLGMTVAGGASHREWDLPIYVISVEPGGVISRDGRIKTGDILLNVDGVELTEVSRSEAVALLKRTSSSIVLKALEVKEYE

DVL3, Q92997 = molecular target: T5, DVL3, Q92997
T5 sequence (Q92997 244-331, limits assumed, looked up): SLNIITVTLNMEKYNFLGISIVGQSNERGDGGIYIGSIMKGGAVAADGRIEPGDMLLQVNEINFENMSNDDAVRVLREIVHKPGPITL

LIMK2, P53671 = molecular target: LIMK2, P53671
LIMK2, P53671, sequence (P53671 143-248): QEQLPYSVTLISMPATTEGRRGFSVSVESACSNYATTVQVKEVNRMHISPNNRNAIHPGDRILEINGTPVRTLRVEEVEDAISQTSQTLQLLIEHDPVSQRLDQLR

ARHGEF11, O15085 = molecular target: T6, ARHGEF11, O15085
T6 sequence (O15085 42-136, limits assumed, looked up): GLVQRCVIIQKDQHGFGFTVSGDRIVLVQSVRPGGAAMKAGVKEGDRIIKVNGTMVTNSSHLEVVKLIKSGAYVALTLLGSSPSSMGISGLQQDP

NOS1, P29475 = molecular target: NOS1, P29475
NOS1, P29475, sequence (P29475 9-101): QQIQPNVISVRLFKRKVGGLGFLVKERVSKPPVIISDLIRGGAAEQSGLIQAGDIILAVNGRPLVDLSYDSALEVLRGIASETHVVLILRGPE

PTPN13_1, Q12923 = molecular target: T7, PTPN13_1, Q12923
T7 sequence (Q12923 1088-1188, limits assumed, looked up): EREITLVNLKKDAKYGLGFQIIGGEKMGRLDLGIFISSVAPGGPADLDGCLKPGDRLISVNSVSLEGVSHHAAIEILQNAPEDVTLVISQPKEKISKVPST

PARD3_3, Q8TEW0 = molecular target: PARD3_3, Q8TEW0
PARD3_3, Q8TEW0, sequence (Q8TEW0 582-685): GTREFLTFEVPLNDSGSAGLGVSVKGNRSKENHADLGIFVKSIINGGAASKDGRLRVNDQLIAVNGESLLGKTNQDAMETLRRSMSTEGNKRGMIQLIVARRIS

GORASP1, Q9BQQ3 = molecular target: GORASP1, Q9BQQ3
GORASP1, Q9BQQ3, sequence (Q9BQQ3 1-208): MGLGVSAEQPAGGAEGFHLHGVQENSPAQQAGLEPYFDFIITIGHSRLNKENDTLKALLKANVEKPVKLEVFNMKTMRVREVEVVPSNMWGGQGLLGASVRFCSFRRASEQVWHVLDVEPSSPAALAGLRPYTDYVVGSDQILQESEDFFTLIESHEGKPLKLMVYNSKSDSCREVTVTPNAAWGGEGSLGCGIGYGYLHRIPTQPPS

GRIP2_3, Q9C0E4 = molecular target: GRIP2_3, Q9C0E4
GRIP2_3, Q9C0E4, sequence (Q9C0E4 238-339): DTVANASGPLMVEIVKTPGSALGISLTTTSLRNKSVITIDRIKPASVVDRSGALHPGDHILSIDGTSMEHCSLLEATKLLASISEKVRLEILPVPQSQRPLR

GRIP1_4, Q9Y3R0 = molecular target: T8, GRIP1_4, Q9Y3R0
T8 sequence (Q9Y3R0 467-571, limits assumed, looked up): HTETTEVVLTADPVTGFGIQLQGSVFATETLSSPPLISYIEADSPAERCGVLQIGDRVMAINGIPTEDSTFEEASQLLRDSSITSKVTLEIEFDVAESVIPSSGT

PDZD2_2, O15018 = molecular target: T9, PDZD2_2, O15018
T9 sequence (O15018 329-429, limits assumed, looked up): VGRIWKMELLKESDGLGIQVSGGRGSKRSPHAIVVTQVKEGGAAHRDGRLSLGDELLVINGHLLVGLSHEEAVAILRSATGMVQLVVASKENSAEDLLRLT

NHERF4_2, Q86UT5 = molecular target: NHERF4_2, Q86UT5
NHERF4_2, Q86UT5, sequence (Q86UT5 220-308): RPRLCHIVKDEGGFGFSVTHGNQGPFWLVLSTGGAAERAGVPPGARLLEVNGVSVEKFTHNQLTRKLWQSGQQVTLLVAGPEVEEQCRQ

MAGI2_5, Q86UL8 = molecular target: MAGI2_5, Q86UL8
MAGI2_5, Q86UL8, sequence (Q86UL8 915-1017): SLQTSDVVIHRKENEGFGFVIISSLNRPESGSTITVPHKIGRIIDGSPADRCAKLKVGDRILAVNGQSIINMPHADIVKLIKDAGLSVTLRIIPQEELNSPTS

FRMPD1, Q5SYB0 = molecular target: T10, FRMPD1, Q5SYB0
T10 sequence (Q5SYB0 52-145, limits assumed, looked up): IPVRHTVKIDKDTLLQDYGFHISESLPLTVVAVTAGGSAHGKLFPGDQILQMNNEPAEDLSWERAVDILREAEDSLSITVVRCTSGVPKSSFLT

HTRA4, P83105 = molecular target: T11, HTRA4, P83105
T11 sequence (P83105 378-476, limits assumed, looked up): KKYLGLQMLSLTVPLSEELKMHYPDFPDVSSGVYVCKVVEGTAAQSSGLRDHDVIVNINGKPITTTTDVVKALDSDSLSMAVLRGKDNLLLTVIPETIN

PDZRN3_1, Q9UPQ7 = molecular target: T12, PDZRN3_1, Q9UPQ7
T12 sequence (Q9UPQ7 244-349, limits assumed, looked up): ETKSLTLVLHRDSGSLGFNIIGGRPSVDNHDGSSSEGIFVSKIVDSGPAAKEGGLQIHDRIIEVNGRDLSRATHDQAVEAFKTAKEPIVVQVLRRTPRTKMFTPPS

DLG5_1, Q8TDM6 = molecular target: DLG5_1, Q8TDM6
DLG5_1, Q8TDM6, sequence (Q8TDM6 617-713): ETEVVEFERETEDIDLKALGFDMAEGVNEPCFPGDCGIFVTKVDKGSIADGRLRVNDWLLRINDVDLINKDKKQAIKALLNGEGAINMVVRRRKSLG

[1] = plain residues with an end cap or a label only (N-terminal biotin on a linker: (peg)3)
[2] = plain residues with an end cap or a label only (N-terminal biotin on a linker: ado-ado)

B1: SARS-Cov2-N, P0DTC9 (peptide)
chain: QQSMSSADSTQA
B1 was tested, and the pKd (SNX27, Q96L92; [1]) was “below the threshold”, the pKd (LNX2_2, Q8N448; [1]) was “below the threshold” and the pKd (Inadl_3, Q8NI35; [1]) was “below the threshold”. For the same binder, the pKd (GRID2IP_2, A4D2P6; [1]) was “below the threshold”, the pKd (RAPGEF6, Q8TEU7; [1]) was “below the threshold” and the pKd (LNX2_3, Q8N448; [1]) was 3.88. The pKd (GRIP2_6, Q9C0E4; [1]) was “below the threshold”, the pKd (MAGI1_2, Q96QZ7; [1]) was “below the threshold” and the pKd (CARD11, Q9BXL7; [1]) was “below the threshold”. For the same binder, the pKd (LNX1_3, Q8TBB1; [1]) was “below the threshold”, the pKd (DVL3, Q92997; [1]) was “below the threshold” and the pKd (LIMK2, P53671; [1]) was “below the threshold”. The pKd (ARHGEF11, O15085; [1]) was “below the threshold”, the pKd (NOS1, P29475; [1]) was “below the threshold” and the pKd (PTPN13_1, Q12923; [1]) was “below the threshold”. The pKd (PARD3_3, Q8TEW0; [1]) was “below the threshold”, the pKd (GORASP1, Q9BQQ3; [1]) was “below the threshold” and the pKd (GRIP2_3, Q9C0E4; [1]) was “below the threshold”. For the same binder, the pKd (GRIP1_4, Q9Y3R0; [1]) was “below the threshold”, the pKd (PDZD2_2, O15018; [1]) was “below the threshold” and the pKd (NHERF4_2, Q86UT5; [1]) was “below the threshold”. The pKd (MAGI2_5, Q86UL8; [1]) was “below the threshold”, the pKd (FRMPD1, Q5SYB0; [1]) was “below the threshold” and the pKd (HTRA4, P83105; [1]) was “below the threshold”. The pKd (PDZRN3_1, Q9UPQ7; [1]) was “below the threshold” and the pKd (DLG5_1, Q8TDM6; [1]) was “below the threshold”.

B2: SLC22A9, Q8IVM8 (peptide)
chain: EDPRVEVTQF
B2 was tested, and the pKd (SNX27, Q96L92; [2]) was 5.39, the pKd (LNX2_2, Q8N448; [2]) was “below the threshold” and the pKd (Inadl_3, Q8NI35; [2]) was “below the threshold”. The pKd (GRID2IP_2, A4D2P6; [2]) was “below the threshold”, the pKd (RAPGEF6, Q8TEU7; [2]) was “below the threshold” and the pKd (LNX2_3, Q8N448; [2]) was “below the threshold”. For the same binder, the pKd (GRIP2_6, Q9C0E4; [2]) was “below the threshold”, the pKd (MAGI1_2, Q96QZ7; [2]) was “below the threshold” and the pKd (CARD11, Q9BXL7; [2]) was “below the threshold”. The pKd (LNX1_3, Q8TBB1; [2]) was “below the threshold”, the pKd (DVL3, Q92997; [2]) was “below the threshold” and the pKd (LIMK2, P53671; [2]) was “below the threshold”. For the same binder, the pKd (ARHGEF11, O15085; [2]) was “below the threshold”, the pKd (NOS1, P29475; [2]) was 3.63 and the pKd (PTPN13_1, Q12923; [2]) was “below the threshold”. The pKd (PARD3_3, Q8TEW0; [2]) was “below the threshold”, the pKd (GORASP1, Q9BQQ3; [2]) was “below the threshold” and the pKd (GRIP2_3, Q9C0E4; [2]) was “below the threshold”. The pKd (GRIP1_4, Q9Y3R0; [2]) was “below the threshold”, the pKd (PDZD2_2, O15018; [2]) was “below the threshold” and the pKd (NHERF4_2, Q86UT5; [2]) was “below the threshold”. The pKd (MAGI2_5, Q86UL8; [2]) was 4.86, the pKd (FRMPD1, Q5SYB0; [2]) was “below the threshold” and the pKd (HTRA4, P83105; [2]) was “below the threshold”. For the same binder, the pKd (PDZRN3_1, Q9UPQ7; [2]) was “below the threshold” and the pKd (DLG5_1, Q8TDM6; [2]) was “below the threshold”.
